Laboratory results: patent US20250320281A1

How the values were obtained:
Assay in all cases: cell-based or functional assay
[1] = molecular target: HIV-1 Env of isolate 92RW008 (pseudovirus) (HIV-1)
[2] = molecular target: HIV-1 Env of isolate 92TH021 (pseudovirus) (HIV-1)
[3] = molecular target: HIV-1 Env of isolate 92UG031 (pseudovirus) (HIV-1)
[4] = molecular target: HIV-1 Env of isolate 92UG037 (pseudovirus) (HIV-1)
[5] = molecular target: HIV-1 Env of isolate 92WR009 (pseudovirus) (HIV-1)
[6] = molecular target: HIV-1 Env of isolate 92WR020 (pseudovirus) (HIV-1)
[7] = molecular target: HIV-1 Env of isolate 92WR021 (pseudovirus) (HIV-1)
[8] = molecular target: HIV-1 Env of isolate 92WR024 (pseudovirus) (HIV-1)
[9] = molecular target: HIV-1 Env of isolate 92WR026 (pseudovirus) (HIV-1)
[10] = molecular target: HIV-1 Env of isolate 93UG077 (pseudovirus) (HIV-1)
[11] = molecular target: HIV-1 Env of isolate 93WR029 (pseudovirus) (HIV-1)
[12] = molecular target: HIV-1 Env of isolate 94KE105 (pseudovirus) (HIV-1)
[13] = molecular target: HIV-1 Env of isolate 94UG103 (pseudovirus) (HIV-1)
[14] = molecular target: HIV-1 Env of isolate CMU02 (pseudovirus) (HIV-1)
[15] = molecular target: HIV-1 Env of isolate MGRM-A-001 (pseudovirus) (HIV-1)
[16] = molecular target: HIV-1 Env of isolate MGRM-A-002 (pseudovirus) (HIV-1)
[17] = molecular target: HIV-1 Env of isolate MGRM-A-003 (pseudovirus) (HIV-1)
[18] = molecular target: HIV-1 Env of isolate MGRM-A-004 (pseudovirus) (HIV-1)
[19] = molecular target: HIV-1 Env of isolate MGRM-A-005 (pseudovirus) (HIV-1)
[20] = molecular target: HIV-1 Env of isolate MGRM-A-006 (pseudovirus) (HIV-1)
[21] = molecular target: HIV-1 Env of isolate MGRM-A-007 (pseudovirus) (HIV-1)
[22] = molecular target: HIV-1 Env of isolate MGRM-A-008 (pseudovirus) (HIV-1)
[23] = molecular target: HIV-1 Env of isolate MGRM-A-009 (pseudovirus) (HIV-1)
[24] = molecular target: HIV-1 Env of isolate MGRM-A-010 (pseudovirus) (HIV-1)
[25] = molecular target: HIV-1 Env of isolate MGRM-A-011 (pseudovirus) (HIV-1)
[26] = molecular target: HIV-1 Env of isolate MGRM-A-012 (pseudovirus) (HIV-1)
[27] = molecular target: HIV-1 Env of isolate MGRM-A-013 (pseudovirus) (HIV-1)
[28] = molecular target: HIV-1 Env of isolate MGRM-A-014 (pseudovirus) (HIV-1)
[29] = molecular target: HIV-1 Env of isolate MGRM-AE-001 (pseudovirus) (HIV-1)
[30] = molecular target: HIV-1 Env of isolate MGRM-AE-002 (pseudovirus) (HIV-1)
[31] = molecular target: HIV-1 Env of isolate MGRM-AE-003 (pseudovirus) (HIV-1)
[32] = molecular target: HIV-1 Env of isolate VLGCA1 (pseudovirus) (HIV-1)
[33] = molecular target: HIV-1 Env of isolate 93IN905 (pseudovirus) (HIV-1)
[34] = molecular target: HIV-1 Env of isolate JR-CSF (pseudovirus) (HIV-1) (UniProt P20871)
[35] = molecular target: HIV-1 Env of isolate MGRM-C-026 (pseudovirus) (HIV-1)

Row | Binder | IC50 (µg/mL), pseudovirus neutralization [1] [µg/mL] | IC50 (µg/mL), pseudovirus neutralization [2] [µg/mL] | IC50 (µg/mL), pseudovirus neutralization [3] [µg/mL] | IC50 (µg/mL), pseudovirus neutralization [4] [µg/mL] | IC50 (µg/mL), pseudovirus neutralization [5] [µg/mL] | IC50 (µg/mL), pseudovirus neutralization [6] [µg/mL] | IC50 (µg/mL), pseudovirus neutralization [7] [µg/mL] | IC50 (µg/mL), pseudovirus neutralization [8] [µg/mL] | IC50 (µg/mL), pseudovirus neutralization [9] [µg/mL] | IC50 (µg/mL), pseudovirus neutralization [10] [µg/mL] | IC50 (µg/mL), pseudovirus neutralization [11] [µg/mL] | IC50 (µg/mL), pseudovirus neutralization [12] [µg/mL] | IC50 (µg/mL), pseudovirus neutralization [13] [µg/mL] | IC50 (µg/mL), pseudovirus neutralization [14] [µg/mL] | IC50 (µg/mL), pseudovirus neutralization [15] [µg/mL] | IC50 (µg/mL), pseudovirus neutralization [16] [µg/mL] | IC50 (µg/mL), pseudovirus neutralization [17] [µg/mL] | IC50 (µg/mL), pseudovirus neutralization [18] [µg/mL] | IC50 (µg/mL), pseudovirus neutralization [19] [µg/mL] | IC50 (µg/mL), pseudovirus neutralization [20] [µg/mL] | further results
1 | PGT-126 (5141_B17) (antibody, V domains shown) VH: QPQLQESGPGLVEASETLSLTCTVSGDSTAACDYFWGWVRQPPGKGLEWIGGLSHCAGYYNTGWTYHNPSLKSRLTISLDTPKNQVFLKLNSVTAADTAIYYCARFDGEVLVYHDWPKPAWVDLWGRGTLVTVSS VL: QSALTQPPSASGSPGQSISISCTGTSNRFVSWYQQHPGKAPKLVIYGVNKRPSGVPDRFSGSKSGNTASLTVSGLQTDDEAVYYCSSLVGNWDVIFGGGTKLTVL | 0.008 | 0.197 | > 50 | 0.011 | > 50 | 0.006 | 0.006 | 42 | 0.008 | 0.02 | > 50 | 0.006 | 0.008 | > 50 | > 50 | 0.015 | > 50 | > 50 | > 50 | > 50 | IC50 (µg/mL), pseudovirus neutralization [21]: > 50 µg/mL; IC50 (µg/mL), pseudovirus neutralization [22]: > 50 µg/mL; IC50 (µg/mL), pseudovirus neutralization [23]: 0.004 µg/mL; IC50 (µg/mL), pseudovirus neutralization [24]: 0.002 µg/mL; IC50 (µg/mL), pseudovirus neutralization [25]: > 50 µg/mL; IC50 (µg/mL), pseudovirus neutralization [26]: 0.097 µg/mL; IC50 (µg/mL), pseudovirus neutralization [27]: 0.006 µg/mL; IC50 (µg/mL), pseudovirus neutralization [28]: 0.01 µg/mL; IC50 (µg/mL), pseudovirus neutralization [29]: 9.68 µg/mL; IC50 (µg/mL), pseudovirus neutralization [30]: > 50 µg/mL; IC50 (µg/mL), pseudovirus neutralization [31]: > 50 µg/mL; IC50 (µg/mL), pseudovirus neutralization [32]: > 50 µg/mL
2 | PGT-127 (5145_B14) (antibody, V domains shown) VH: QPQLQESGPGLVEASETLSLTCTVSGDSTGRCNYFWGWVRQPPGKGLEWIGSLSHCRSYYNTDWTYHNPSLKSRLTISLDTPKNQVFLRLTSVTAADTATYYCARFGGEVLVYRDWPKPAWVDLWGRGTLVVTVS VL: QSALTQPPSASGSPGQSITISCTGTSNNFVSWYQQYPGKAPKLVIYEVNKRPSGVPDRFSGSKSGSTASLTVSGLQADDEGVYYCSSLVGNWDVIFGGGTKLTVL | 0.012 | > 50 | > 50 | 0.014 | > 50 | 0.01 | 0.011 | > 50 | 0.024 | 0.055 | > 50 | 0.023 | 0.017 | > 50 | > 50 | 9.42 | > 50 | > 50 | > 50 | > 50 | IC50 (µg/mL), pseudovirus neutralization [21]: > 50 µg/mL; IC50 (µg/mL), pseudovirus neutralization [22]: > 50 µg/mL; IC50 (µg/mL), pseudovirus neutralization [23]: 0.013 µg/mL; IC50 (µg/mL), pseudovirus neutralization [24]: 0.017 µg/mL; IC50 (µg/mL), pseudovirus neutralization [25]: > 50 µg/mL; IC50 (µg/mL), pseudovirus neutralization [26]: 0.105 µg/mL; IC50 (µg/mL), pseudovirus neutralization [27]: 0.029 µg/mL; IC50 (µg/mL), pseudovirus neutralization [28]: 0.24 µg/mL; IC50 (µg/mL), pseudovirus neutralization [29]: > 50 µg/mL; IC50 (µg/mL), pseudovirus neutralization [30]: > 50 µg/mL; IC50 (µg/mL), pseudovirus neutralization [31]: > 50 µg/mL; IC50 (µg/mL), pseudovirus neutralization [32]: > 50 µg/mL
3 | 5366_P21 (PGT-136) (antibody, V domains shown) VH: QLQLQESGPGLVKPSETLSLTCTVSGGSMRGTDWGENDFHYGWIRQSSAKGLEWIGSIHWRGRTTHYKTSFRSRATLSIDTSNNRFSLTFSFVTAADTAVYYCARHKYHDIFRVVPVAGWFDPWGQGLLVTVSS VL: EIVMTQSPPTLSVSPGETATLSCRASQNVKNNLAWYQLKPGQAPRLLIFDASSRAGGIPDRFSGSGYGTDFTLTVNSVQSEDFGDYFCQQYEEWPRTFGQGTKVDIK |  |  |  |  |  |  |  |  |  |  |  |  |  |  |  |  |  |  |  |  | Primary Neutralization Index (B cell culture supernatant) [33]: 5.5; Primary Neutralization Index (B cell culture supernatant) [34]: 1.1; Primary Neutralization Index (B cell culture supernatant) [35]: 6.2
